Experimental findings from IntAct's records for PubMed 22512862 are described below.

Sequences and labels used below:
B1: Phosphocarrier protein HPr (Bacillus subtilis), P08877 (parent)
chain: MAQKTFKVTADSGIHARPATVLVQTASKYDADVNLEYNGKTVNLKSIMGVMSLGIAKGAEITISASGADENDALNALEETMKSEGLGE
partner: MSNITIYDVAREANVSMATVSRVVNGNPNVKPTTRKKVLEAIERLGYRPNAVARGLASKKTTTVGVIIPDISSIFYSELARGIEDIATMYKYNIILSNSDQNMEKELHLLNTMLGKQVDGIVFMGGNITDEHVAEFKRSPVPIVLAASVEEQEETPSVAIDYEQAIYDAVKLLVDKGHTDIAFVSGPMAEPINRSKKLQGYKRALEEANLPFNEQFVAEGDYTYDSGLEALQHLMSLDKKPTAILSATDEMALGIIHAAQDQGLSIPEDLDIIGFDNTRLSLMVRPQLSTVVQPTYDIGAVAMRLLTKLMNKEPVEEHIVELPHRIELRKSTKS

Variants of B1 are the subject of the assay. Conditions: with ccpa_bacsu ccpA.
Regarding S46A, the “effect of a mutation on the interaction” value is recorded as “disrupting interaction”.
